The source of these data is IntAct's records for PubMed 29849149.

The chains are these.
B1: Beclin-1 (Mus musculus), O88597 (parent)
chain: MEGSKASSSTMQVSFVCQRCSQPLKLDTSFKILDRVTIQELTAPLLTTAQAKPGETQEEEANSGEEPFIETRQDGVSRRFIPPARMMSTESANSFTLIGEASDGGTMENLSRRLKVTGDLFDIMSGQTDVDHPLCEECTDTLLDQLDTQLNVTENECQNYKRCLEILEQMNEDDSEQLQRELKELALEEERLIQELEDVEKNRKVVAENLEKVQAEAERLDQEEAQYQREYSEFKRQQLELDDELKSVENQVRYAQIQLDKLKKTNVFNATFHIWHSGQFGTINNFRLGRLPSVPVEWNEINAAWGQTVLLLHALANKMGLKFQRYRLVPYGNHSYLESLTDKSKELPLYCSGGLRFFWDNKFDHAMVAFLDCVQQFKEEVEKGETRFCLPYRMDVEKGKIEDTGGSGGSYSIKTQFNSEEQWTKALKFMLTNLKWGLAWVSSQFYNK

This assay covers variants of B1. The note with it: with bcl2_mouse Bcl2, P10417.
Sequence of bcl2_mouse Bcl2, P10417 (P10417 whole entry): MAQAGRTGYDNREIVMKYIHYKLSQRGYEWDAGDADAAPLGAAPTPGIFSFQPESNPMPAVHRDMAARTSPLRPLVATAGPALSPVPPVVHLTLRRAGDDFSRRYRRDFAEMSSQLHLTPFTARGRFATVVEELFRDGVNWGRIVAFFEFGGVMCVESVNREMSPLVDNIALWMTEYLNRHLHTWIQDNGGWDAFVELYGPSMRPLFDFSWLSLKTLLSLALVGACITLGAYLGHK
Take MEGSKASSSTMQVSFVCQRCSQPLKLDTSFKILDRVTIQELTAPLLTTAQAKPGETQEEEANSGEEPFIETRQDGVSRRFIPPARMMSTESANSFTLIGEASDGGTMENLSRRLKVTGDLADIMSGQTDVDHPLCEECTDTLLDQLDTQLNVTENECQNYKRCLEILEQMNEDDSEQLQRELKELALEEERLIQELEDVEKNRKVVAENLEKVQAEAERLDQEEAQYQREYSEFKRQQLELDDELKSVENQVRYAQIQLDKLKKTNVFNATFHIWHSGQFGTINNFRLGRLPSVPVEWNEINAAWGQTVLLLHALANKMGLKFQRYRLVPYGNHSYLESLTDKSKELPLYCSGGLRFFWDNKFDHAMVAFLDCVQQFKEEVEKGETRFCLPYRMDVEKGKIEDTGGSGGSYSIKTQFNSEEQWTKALKFMLTNLKWGLAWVSSQFYNK [F121A]: the “effect of a mutation on the interaction” value is on record as “decreasing interaction strength”.
